Data: paper PMC3877120, “Pentavalent Single-Domain Antibodies Reduce Campylobacter jejuni Motility and Colonization in Chickens” (PLoS ONE, 2013)

Tests used:
[1] = biological target: T1, C. jejuni 81–176 flagella (Campylobacter jejuni strain 81–176, biotin (Sulfo-NHS-LC-LC-biotin), in the SPR only | biotin (Sulfo-NHS-LC-LC-biotin), in the SPR only); experiment: SPR; Biacore 3000; biotinylated flagella (700–900 RU) captured on an SA sensor chip; VHHs injected at 40 µl/min; 25°C; 10 mM HEPES pH 7.4, 150 mM NaCl, 3 mM EDTA, 0.005% P20; 1:1 interaction model; conditions: both partners purified
T1 construct: flagellin FlaA of C. jejuni strain 81–176; flagellin FlaB of C. jejuni strain 81–176; also called flagellin; flagella protein; source: purified from C. jejuni 81–176 (sheared, ultracentrifugation, 1% SDS wash); also on formalin-fixed C. jejuni 81–176 cells
T1 chain 1: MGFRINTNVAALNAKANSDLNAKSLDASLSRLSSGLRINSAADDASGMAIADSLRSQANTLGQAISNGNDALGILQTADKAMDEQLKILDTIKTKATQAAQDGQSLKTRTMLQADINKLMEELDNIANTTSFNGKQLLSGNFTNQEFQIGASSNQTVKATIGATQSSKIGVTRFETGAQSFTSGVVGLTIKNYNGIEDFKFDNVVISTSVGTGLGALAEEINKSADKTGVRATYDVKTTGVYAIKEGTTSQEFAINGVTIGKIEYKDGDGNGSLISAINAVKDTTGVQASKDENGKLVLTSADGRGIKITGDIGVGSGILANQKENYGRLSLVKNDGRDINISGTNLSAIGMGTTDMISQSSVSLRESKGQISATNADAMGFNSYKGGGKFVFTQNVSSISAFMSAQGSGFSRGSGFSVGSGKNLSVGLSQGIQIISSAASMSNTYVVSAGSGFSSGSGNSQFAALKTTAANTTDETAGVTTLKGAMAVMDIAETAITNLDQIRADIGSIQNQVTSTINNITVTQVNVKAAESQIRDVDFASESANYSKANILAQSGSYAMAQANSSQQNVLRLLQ
T1 chain 2: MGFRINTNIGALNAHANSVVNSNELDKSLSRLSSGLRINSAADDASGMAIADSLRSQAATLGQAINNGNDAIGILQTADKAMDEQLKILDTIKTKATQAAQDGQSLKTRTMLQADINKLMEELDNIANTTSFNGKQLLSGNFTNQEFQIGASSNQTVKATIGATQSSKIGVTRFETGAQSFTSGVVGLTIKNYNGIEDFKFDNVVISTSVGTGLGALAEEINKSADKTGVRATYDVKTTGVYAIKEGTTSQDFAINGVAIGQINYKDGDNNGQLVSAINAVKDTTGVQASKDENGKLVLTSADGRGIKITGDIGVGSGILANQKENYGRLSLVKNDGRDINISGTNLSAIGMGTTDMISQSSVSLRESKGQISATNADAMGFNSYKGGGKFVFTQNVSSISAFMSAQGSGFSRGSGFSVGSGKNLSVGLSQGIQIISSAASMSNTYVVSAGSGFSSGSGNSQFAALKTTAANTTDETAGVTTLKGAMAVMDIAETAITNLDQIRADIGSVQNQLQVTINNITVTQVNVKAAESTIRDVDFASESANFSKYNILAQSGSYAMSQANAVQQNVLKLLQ

[2] = biological target: T1, C. jejuni 81–176 flagella; experiment: ELISA; C. jejuni 81–176 flagella coated on Maxisorp plates (5 µg/ml in PBS); monomeric or pentameric VHH at 10 to 0.0001 µg/ml, 1 h at 37°C; detected with anti-His6-HRP; concentration of 50% maximum binding; conditions: both partners purified

B1: FlagV1M (monomeric flagella-specific VHH FlagV1) (VHH)
VHH: QVKLEESGGGLVQAGGSRRLSCATSGLTFRNFHMAWFRQVAGKEREVVAAISWSRDRQYYPDPVKGRFTITRDNAKNTVYLQMNSLKPEDTAVYYCAARTASASGDWYKGSYQYWGQGTQVTVSS
notes: llama VHH from an immune phage display library; also called FlagV1 VHH; source: E. coli TG1, periplasm, purified (IMAC; Superdex 75 before SPR)
Kd [1]: 20 nM
koff [1]: 0.002 s⁻¹
kon [1]: 100000 M⁻¹ s⁻¹
EC50 [2]: 15.6 nM
